Here are results for 9 molecules from paper PMC6513101, “Experimentally guided computational antibody affinity maturation with de novo docking, modelling and rational design” (PLoS Computational Biology, 2019).

Changes are numbered by the printed parent chain. Numbers in names are those of the source.

As a reminder, the koff is a measure of how fast the partners let go of each other. As a reminder, the Kd is the concentration at which binding is half-saturated. A higher Kd goes with lower affinity.

Assay [1] has as its target T1, biotinylated murine CCL20 (Mus musculus, UniProt O89093, biotin).
T1 construct: CCL20, mouse; recombinant; m2 with biotin; also called biotinylated muCCL20; muCCL20 antigen; source: in-house, standard mammalian cell expression; biotinylated
Nature of the assay: ELISA; capture ELISA: plate-coated anti-mouse Fc antibody (1 ug/mL) captures the antibody variant (5 ug/mL); biotinylated muCCL20 titrated from 0 to 600 nM, 1 h. The settings on record: both partners purified. A general note: ELISA stands for enzyme-linked immunosorbent assay.

In assay [2] the target is T2, biotinylated murine CCL20, O89093.
T2 chain: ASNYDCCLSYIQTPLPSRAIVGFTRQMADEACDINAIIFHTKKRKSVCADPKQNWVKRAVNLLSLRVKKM
Nature of the assay: capture ELISA. Conditions: chain shown with the change; highest mAb concentration, log[nM] about 1.8; plate-coated anti-Fc antibody to capture the antibody variants; parent: est. 1.8; read off a plot.

Another assay concerns the target murine CCL20 (mouse) (UniProt O89093).
For assay [3], the target named is T3, murine CCL20 (Mus musculus, UniProt O89093).
T3 construct: CCL20, mouse; recombinant; also called muCCL20; mouse CCL20; source: in-house, standard mammalian cell expression; purified
Nature of the assay: ELISA; mouse or human CCL20 coated at 2 ug/mL on Maxisorp plates overnight at 4°C; antibody dilutions starting at 60 nM; detected with anti-Fc-HRP. The settings on record: both partners purified.

In assay [4] the target is T4, murine CCL20 (mouse, UniProt O89093 28-97).
T4 chain: T2 chain
Nature of the assay: SPR. Background: In SPR one partner is held on a chip, and binding of the other changes the refractive index at the surface.

In assay [5] the target is T3, murine CCL20. As to the kind of experiment: SPR; Biacore T200; muCCL20 immobilised on a CM4 chip (~30 RU); Fab 0.02-50 nM at 100 uL/min; HBS-EP pH 7.4; 1:1 model; apparent KD = koff/kon. Conditions: both partners purified.
Assay [6] addresses T4, murine CCL20. As to the kind of experiment: SPR.

B1: AB1 alanine variant 7 (H:S28A, H:N113A, L:K36A) (antibody, V domains shown)
VH: QVQLQQSGAELAKPGSSVKISCKAYGASFTTNSIHWIKQTTGQALEWTGYIAPGSGGARYNEKFKGKATLTVDKSSGTAYMQLSSLTPVDTAVYYCALNIGTAPFTYWGQGTLVTVSS
VL: DIVMTQGALPNPVPSGESVSITCRSSKSLLYSDGATYLNWYLQRPGQSPQLLIYWMSTRASGVSDRFSGSGSGTDFTLKISGVEAEDVGVYYCQQGLEFPRTFGSGTKLEIK
notes: IMGT numbering; IgG1, as m1; source: HEK293FT, transiently transfected, purified (Protein A)
Consider B1, for which, in assay [1], the binding result is “binds”. Moreover, in assay [2], the response was 0.86 A450.

B2: AB1-C1-16 (H:S28R, L:G35Y) (antibody, V domains shown)
VH: B1 VH with A27R, A103N
VL: B1 VL with G34Y, A35K
notes: IMGT numbering; IgG1, as m1; also called clone 1–16; combination clone; source: HEK293FT, transiently transfected, purified (Protein A)
For B2, the binding result in assay [1] was “binds”. Further, the fold decrease in antibody IC50 against parental AB1, CCR6 CHO-K1 β-arrestin assay with 4 nM muCCL20; blocks muCCL20 with muCCR6 in the assay with murine CCL20 (mouse) came to 4 fold.

B3: AB1 anti-muCCL20 monoclonal antibody (antibody, V domains shown)
VH: B1 VH with A27S, A103N
VL: B1 VL with A35K
notes: VH of AB1; VL of AB1; IgG1 (in-house mammalian expression vector); hybridoma derived; also called WT AB1; parental AB1; source: HEK293FT, transiently transfected, purified from supernatant (Protein A)
On to B3, for which the binding result (in the assay with murine CCL20 [3]; in assay [1]) was “binds” in each case.

B4: AB1-C1 Fab fragment (H:S28R) (Fab, V domains shown)
VH: B1 VH with A27R, A103N
VL: B1 VL with A35K
notes: IMGT numbering; Fab of m28; also called Clone AB1-C1; source: papain cleavage of the purified antibody; purified by anion and cation exchange chromatography
B4 returned a koff in the assay with murine CCL20 [4] of 0.0029 s⁻¹. Besides, in the assay with murine CCL20 [5], the “fold improvement in KD against parental AB1” value was found to be 4 fold. Also, in the assay with murine CCL20 [6], the Kd is 2.3 nM.

B5: AB1-C1-16 Fab fragment (H:S28R, L:G35Y) (Fab, V domains shown)
VH: B1 VH with A27R, A103N
VL: B1 VL with G34Y, A35K
notes: IMGT numbering; Fab of m48; also called combination clone AB1-C1-16; source: papain cleavage of the purified antibody; purified by anion and cation exchange chromatography
For B5, the koff in the assay with murine CCL20 [4] is 0.0042 s⁻¹. The binding result with murine CCL20 [5] was “binds”. For the same molecule, the Kd with murine CCL20 [6] came out at 2.8 nM.

B6: AB1-C16 Fab fragment (L:G35Y) (Fab, V domains shown)
VH: B1 VH with A27S, A103N
VL: B1 VL with G34Y, A35K
notes: IMGT numbering; Fab of m43; source: papain cleavage of the purified antibody; purified by anion and cation exchange chromatography
In the case of B6, the off-rate constant (koff) with murine CCL20 [4] worked out at 0.007 s⁻¹. For the same molecule, in the assay with murine CCL20 [5], the binding result is “binds”. In the assay with murine CCL20 [6], this molecule came in with an equilibrium dissociation constant (Kd) of 8.4 nM.

B7: AB1 Fab fragment (Fab, V domains shown)
VH: B1 VH with A27S, A103N
VL: B1 VL with A35K
notes: Fab of m1; also called parental AB1 (Fab); source: papain cleavage of the purified antibody; purified by anion and cation exchange chromatography
The molecule B7 returned a koff in the assay with murine CCL20 [4] of 0.0077 s⁻¹. For the same molecule, the binding result in the assay with murine CCL20 [5] is listed as “binds”. The molecule also returned a dissociation constant Kd with murine CCL20 [6] of 9.1 nM.

B8: AB1-C16 (L:G35Y) (antibody, V domains shown)
VH: B1 VH with A27S, A103N
VL: B1 VL with G34Y, A35K
notes: IMGT numbering; IgG1, as m1; also called clone 16; VL clone 16; source: HEK293FT, transiently transfected, purified (Protein A)
Regarding B8, the binding result in assay [1] is “binds”. For the same molecule, in the assay with murine CCL20 (mouse), the fold decrease in antibody IC50 against parental AB1, CCR6 CHO-K1 β-arrestin assay with 4 nM muCCL20; blocks muCCL20 with muCCR6 was 2 fold.

B9: AB1-C1 (H:S28R) (antibody, V domains shown)
VH: B1 VH with A27R, A103N
VL: B1 VL with A35K
Turning to B9, the fold decrease in antibody IC50 against parental AB1, CCR6 CHO-K1 β-arrestin assay with 4 nM muCCL20; blocks muCCL20 with muCCR6 with murine CCL20 (mouse) was found to be 4 fold.
